Measured values reported in patent US20110028695A1 (published 2011).
Numbering of substitutions follows the chain as printed.

B1: 27H3-35GS-2D3 (other)
chain: EVQLVESGGSLVQPGGSLRLSCAASGFTFDDYAMTWVRQASGKGLEWVSSINWSGTHTDYTDSVKGRFTISRNNANNTLYLQMNSLKSEDTAVYYCAKNWGDAGTTWFEKSGSAGQGTQVTVSSGGGGSGGGGSGGGGSGGGGSGGGGSGGGGSGGGGSEVQLVESGGSLVQPGGSLRLSCAASGFTFDDYAMSWVRQVPGKGLEWVSSINWSGTHTDYADSVKGRFTISRNNANNTLYLQMNSLKSEDTAVYYCAKNWRDAGTTWFEKSGSAGQGTQVTVSS
notes: biparatopic Nanobody, 35GS linker; c-myc, His6-tagged
B2: 2D3 (VHH)
VHH: EVQLVESGGSLVQPGGSLRLSCAASGFTFDDYAMSWVRQVPGKGLEWVSSINWSGTHTDYADSVKGRFTISRNNANNTLYLQMNSLKSEDTAVYYCAKNWRDAGTTWFEKSGSAGQGTQVTVSS
B3: 13C12 (VHH)
VHH: B2 VHH with A24T, S35T, V40A, A61T, R101G
notes: c-myc/His6-tagged
B4: 2H3 (VHH)
VHH: EVQLVESGGGLVQPGGSLRLSCVASGFSLDDYGMTWVRQAPGKGLEWVSSINWSGTHTDYADSVKGRFTISRDNAKNTLFLQMNSLTPEDTAVYYCNQGWKIIPTDRRGHGTQVTVSS
notes: c-myc/His6-tagged
B5: 47D5 (VHH)
VHH: KVQLVESGGGLVQPGGSLRLSCAASGSIFGFNDMAWYRQAPGKQRELVALISRVGVTSSADSVKGRFTISRVNAKDTVYLQMNSLKPEDTAVYYCYMDQRLDGSTLAYWGQGTQVTVSS
notes: c-myc/His6-tagged; also called 47A8
B6: 27A5-35GS-2D3 (bispecific antibody)
chain: EVQLVESGGGLVQAGGSLNLSCVASGIPFSTRTMAWYRQPPGNERDWVATIRSGAPVYADSVKGRFTVSRDNAKNTLYLQMNSLEPEDTATYYCWDVNGDIWGQGTPVTVSSGGGGSGGGGSGGGGSGGGGSGGGGSGGGGSGGGGSEVQLVESGGSLVQPGGSLRLSCAASGFTFDDYAMSWVRQVPGKGLEWVSSINWSGTHTDYADSVKGRFTISRNNANNTLYLQMNSLKSEDTAVYYCAKNWRDAGTTWFEKSGSAGQGTQVTVSS
notes: as for B1
B7: 30D10-35GS-2D3 (bispecific antibody)
chain: EVQLVESGGGLVQAGGSLTLSCTASETTVRIRTMAWYRQPPGNQREWVATIGSNGFATYPDSVKGRFTISRDNAKNTVYLQMNSLKPEDTAVYYCRDINRDIWGQGSQVTVSSGGGGSGGGGSGGGGSGGGGSGGGGSGGGGSGGGGSEVQLVESGGSLVQPGGSLRLSCAASGFTFDDYAMSWVRQVPGKGLEWVSSINWSGTHTDYADSVKGRFTISRNNANNTLYLQMNSLKSEDTAVYYCAKNWRDAGTTWFEKSGSAGQGTQVTVSS
notes: as for B1
B8: 2C3-9GS-2C3 (VHH)
chain: EVQLVESGGGLVQPGGSLRLSCVASGFSLDDYGMTWVRQAPGKGLEWVSSINWSGTHTDYADSVKGRFTISRDNAKNTLFLQMNSLRSEDTAVYYCNQGWKIVPTDRTGHGTQVTVSSGGGGSGGGSEVQLVESGGGLVQPGGSLRLSCVASGFSLDDYGMTWVRQAPGKGLEWVSSINWSGTHTDYADSVKGRFTISRDNAKNTLFLQMNSLRSEDTAVYYCNQGWKIVPTDRTGHGTQVTVSS
notes: bivalent Nanobody, two VHH joined by a 9GS linker
B9: 2A4-9GS-2A4 (VHH)
chain: EVQLVESGGGLVQPGGSLRLSCAASGFIFDDYAMSWVRQAPGKGLEWVSAINWSGSHRNYADSVKGRFTISRDNAKKTVYLQMNSLQSEDTAVYYCGTGWQSTTKNQGYWGQGTQVTVSSGGGGSGGGSEVQLVESGGGLVQPGGSLRLSCAASGFIFDDYAMSWVRQAPGKGLEWVSAINWSGSHRNYADSVKGRFTISRDNAKKTVYLQMNSLQSEDTAVYYCGTGWQSTTKNQGYWGQGTQVTVSS
notes: as for B8
B10: 2A5-9GS-2A5 (VHH)
chain: EVQLVESGGGLVQPGGSLRLSCATSGFTFDDYAMTWVRQAPGKGLEWVSSINWSGTHTDYTDSVKGRFTISRNNANNTLYLQMNSLKSEDTAVYYCAKNWGDAGTTWFEKSGSAGQGTQVTVSSGGGGSGGGSEVQLVESGGGLVQPGGSLRLSCATSGFTFDDYAMTWVRQAPGKGLEWVSSINWSGTHTDYTDSVKGRFTISRNNANNTLYLQMNSLKSEDTAVYYCAKNWGDAGTTWFEKSGSAGQGTQVTVSS
notes: as for B8
B11: 2D3-9GS-2D3 (VHH)
chain: EVQLVESGGSLVQPGGSLRLSCAASGFTFDDYAMSWVRQVPGKGLEWVSSINWSGTHTDYADSVKGRFTISRNNANNTLYLQMNSLKSEDTAVYYCAKNWRDAGTTWFEKSGSAGQGTQVTVSSGGGGSGGGSEVQLVESGGSLVQPGGSLRLSCAASGFTFDDYAMSWVRQVPGKGLEWVSSINWSGTHTDYADSVKGRFTISRNNANNTLYLQMNSLKSEDTAVYYCAKNWRDAGTTWFEKSGSAGQGTQVTVSS
notes: as for B8

How the values were obtained:
HER2 on SKBR3 cells [1] = target: T1, HER2 on SKBR3 cells (human, UniProt P04626 23-1255); assay: FMAT on SKBR3 cells; competitor labeled Herceptin
T1 construct: whole, on cells; also called ErbB2; HER2 p185 tyrosine kinase

HER2 on SKBR3 cells [2] = target: T1, HER2 on SKBR3 cells; assay: cell-based or functional assay
HER2 on SKBR3 cells [3] = target: T1, HER2 on SKBR3 cells; assay: FMAT on SKBR3 cells, periplasmic extract; competitor Alexa647-Herceptin
[4] = target: T2, recombinant human ErbB2/Fc chimera (human, UniProt P04626 23-652); assay: SPR Biacore 3000, periplasmic extract over immobilised rhErbB2-Fc
T2 construct: bought from R&D Systems; also called rhErbB2-Fc; rhErb2-Fc; Fc part of the bought chimera not given

HER2 on SKBR3 cells [5] = target: T1, HER2 on SKBR3 cells; assay: FMAT on SKBR3 cells, periplasmic extract; competitor biotinylated OT-Fab

Row | Binder | binding result (HER2 on SKBR3 cells [1]) | other results
1 | B1 | binds | 
2 | B2 |  | inhibition of SKBR3 proliferation ([3H]-thymidine), 50 nM Nanobody (HER2 on SKBR3 cells [2]): ~30%
3 | B3 |  | % blocking of Herceptin binding (HER2 on SKBR3 cells [3]): > 90%
4 | B4 |  | koff [4]: 0.00109 s⁻¹
5 | B5 |  | % blocking of OT-Fab binding (HER2 on SKBR3 cells [5]): > 85%
6 | B6 | binds | 
7 | B7 | binds | 
8 | B8 | binds | 
9 | B9 | binds | 
10 | B10 | binds | 
11 | B11 | binds | 
